Source: PMC9482650, “Quantitative fragmentomics allow affinity mapping of interactomes” (Nature Communications, 2022)

T1: DFNB31_2, Q9P202
T1 sequence (Q9P202 274-371, limits assumed, looked up): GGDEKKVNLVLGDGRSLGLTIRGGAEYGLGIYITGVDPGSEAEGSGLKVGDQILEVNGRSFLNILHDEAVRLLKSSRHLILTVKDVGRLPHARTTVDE

T2: DFNB31_3, Q9P202
T2 sequence (Q9P202 811-907, limits assumed, looked up): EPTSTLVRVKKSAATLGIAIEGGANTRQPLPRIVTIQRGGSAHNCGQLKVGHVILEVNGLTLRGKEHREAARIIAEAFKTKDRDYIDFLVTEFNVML

T3: DLG3_3, Q92796
T3 sequence (Q92796 374-475, limits assumed, looked up): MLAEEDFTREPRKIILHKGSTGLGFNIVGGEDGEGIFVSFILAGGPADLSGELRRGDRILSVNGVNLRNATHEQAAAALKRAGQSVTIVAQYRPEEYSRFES

T4: DVL3, Q92997
T4 sequence (Q92997 244-331, limits assumed, looked up): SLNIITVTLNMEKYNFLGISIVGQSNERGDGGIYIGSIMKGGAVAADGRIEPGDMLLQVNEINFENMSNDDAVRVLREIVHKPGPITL

T5: GRIP1_5, Q9Y3R0
T5 sequence (Q9Y3R0 568-668, limits assumed, looked up): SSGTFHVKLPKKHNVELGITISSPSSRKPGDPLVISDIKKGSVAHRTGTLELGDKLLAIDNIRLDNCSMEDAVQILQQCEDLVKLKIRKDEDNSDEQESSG

T6: GRIP1_7, Q9Y3R0
T6 sequence (Q9Y3R0 999-1096, limits assumed, looked up): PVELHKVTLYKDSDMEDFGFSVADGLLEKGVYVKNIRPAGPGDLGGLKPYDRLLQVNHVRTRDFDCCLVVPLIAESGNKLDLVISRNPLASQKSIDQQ

T7: LIN7C, Q9NUP9
T7 sequence (Q9NUP9 88-185, limits assumed, looked up): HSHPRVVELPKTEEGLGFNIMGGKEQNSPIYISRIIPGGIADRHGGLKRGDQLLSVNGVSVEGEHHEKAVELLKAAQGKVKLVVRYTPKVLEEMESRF

T8: LNX2_2, Q8N448
T8 sequence (Q8N448 334-432, limits assumed, looked up): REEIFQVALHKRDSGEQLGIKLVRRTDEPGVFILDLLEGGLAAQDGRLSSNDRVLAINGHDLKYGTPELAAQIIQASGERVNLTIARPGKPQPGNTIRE

T9: LNX2_3, Q8N448
T9 sequence (Q8N448 463-564, limits assumed, looked up): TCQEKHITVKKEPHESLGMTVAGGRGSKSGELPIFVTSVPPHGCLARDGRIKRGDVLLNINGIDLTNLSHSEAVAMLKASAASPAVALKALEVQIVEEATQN

T10: MPP2, Q14168
T10 sequence (Q14168 180-250, limits assumed, looked up): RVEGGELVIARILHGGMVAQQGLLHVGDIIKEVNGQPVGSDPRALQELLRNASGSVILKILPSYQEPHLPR

T11: NHERF3_1, Q5T2W1
T11 sequence (Q5T2W1 4-100, limits assumed, looked up): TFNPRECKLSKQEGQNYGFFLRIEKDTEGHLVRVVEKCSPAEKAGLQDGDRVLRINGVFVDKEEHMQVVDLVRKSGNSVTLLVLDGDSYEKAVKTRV

T12: PTPN13_1, Q12923
T12 sequence (Q12923 1088-1188, limits assumed, looked up): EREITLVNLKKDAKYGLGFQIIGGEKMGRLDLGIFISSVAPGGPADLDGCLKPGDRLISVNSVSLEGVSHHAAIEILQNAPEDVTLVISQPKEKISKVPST


What follows are binders tested against T1, DFNB31_2, Q9P202 (assay: holdup assay). Conditions: plain residues with an end cap or a label only (N-terminal biotin on a linker: ado-ado).
Parameters: key: below the threshold = too weak to quantify, mostly under pKd 3.1 to 4

Binder	pKd
IDESKKEWLI [CNTNAP2, Q9UHC6]	below the threshold

These binders were tested against T2, DFNB31_3, Q9P202 (assay: holdup assay). Conditions: plain residues with an end cap or a label only (N-terminal biotin on a linker: ado-ado).
Parameters: key: below the threshold = too weak to quantify, mostly under pKd 3.1 to 4

Binder	pKd
IDESKKEWLI [CNTNAP2, Q9UHC6]	3.52

The binders below were run against DLG1_1, Q12959 (assay: holdup assay). Conditions: plain residues with an end cap or a label only (N-terminal biotin on a linker: ado-ado).
Parameters: key: below the threshold = too weak to quantify, mostly under pKd 3.1 to 4

Binder	pKd
IDESKKEWLI [CNTNAP2, Q9UHC6]	below the threshold

The binders below were run against T3, DLG3_3, Q92796 (assay: holdup assay). Conditions: plain residues with an end cap or a label only (N-terminal biotin on a linker: ado-ado).
Parameters: key: below the threshold = too weak to quantify, mostly under pKd 3.1 to 4

Binder	pKd
IDESKKEWLI [CNTNAP2, Q9UHC6]	below the threshold

The binders below were run against T4, DVL3, Q92997 (assay: holdup assay). Conditions: plain residues with an end cap or a label only (N-terminal biotin on a linker: ado-ado).
Parameters: key: below the threshold = too weak to quantify, mostly under pKd 3.1 to 4

Binder	pKd
IDESKKEWLI [CNTNAP2, Q9UHC6]	3.85

Each binder was assayed against FRMPD3, Q5JV73 (assay: holdup assay). Conditions: plain residues with an end cap or a label only (N-terminal biotin on a linker: ado-ado).
Parameters: key: below the threshold = too weak to quantify, mostly under pKd 3.1 to 4

Chain of FRMPD3, Q5JV73 (Q5JV73 12-100): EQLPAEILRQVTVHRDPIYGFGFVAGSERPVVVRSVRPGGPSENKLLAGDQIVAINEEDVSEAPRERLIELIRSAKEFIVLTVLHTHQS

Binder	pKd
IDESKKEWLI [CNTNAP2, Q9UHC6]	below the threshold

The binders below were run against T5, GRIP1_5, Q9Y3R0 (assay: holdup assay). Conditions: plain residues with an end cap or a label only (N-terminal biotin on a linker: ado-ado).
Parameters: key: below the threshold = too weak to quantify, mostly under pKd 3.1 to 4

Binder	pKd
IDESKKEWLI [CNTNAP2, Q9UHC6]	below the threshold

What follows are binders tested against T6, GRIP1_7, Q9Y3R0 (assay: holdup assay). Conditions: plain residues with an end cap or a label only (N-terminal biotin on a linker: ado-ado).
Parameters: key: below the threshold = too weak to quantify, mostly under pKd 3.1 to 4

Binder	pKd
IDESKKEWLI [CNTNAP2, Q9UHC6]	below the threshold

The binders below were run against GRIP2_6, Q9C0E4 (assay: holdup assay). Conditions: plain residues with an end cap or a label only (N-terminal biotin on a linker: ado-ado).
Parameters: key: below the threshold = too weak to quantify, mostly under pKd 3.1 to 4

Chain of GRIP2_6, Q9C0E4 (Q9C0E4 648-740): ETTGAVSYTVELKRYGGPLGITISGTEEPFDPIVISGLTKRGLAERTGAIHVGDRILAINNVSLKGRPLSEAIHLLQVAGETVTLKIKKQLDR

Binder	pKd
IDESKKEWLI [CNTNAP2, Q9UHC6]	3.57

What follows are binders tested against IL16_3, Q14005 (assay: holdup assay). Conditions: plain residues with an end cap or a label only (N-terminal biotin on a linker: ado-ado).
Parameters: key: below the threshold = too weak to quantify, mostly under pKd 3.1 to 4

Chain of IL16_3, Q14005 (Q14005 1107-1207): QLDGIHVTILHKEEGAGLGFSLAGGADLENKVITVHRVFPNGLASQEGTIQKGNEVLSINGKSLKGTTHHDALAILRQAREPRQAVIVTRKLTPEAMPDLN

Binder	pKd
IDESKKEWLI [CNTNAP2, Q9UHC6]	below the threshold

What follows are binders tested against Inadl_4, Q8NI35 (assay: holdup assay). Conditions: plain residues with an end cap or a label only (N-terminal biotin on a linker: ado-ado).
Parameters: key: below the threshold = too weak to quantify, mostly under pKd 3.1 to 4

Chain of Inadl_4, Q8NI35 (Q8NI35 547-651): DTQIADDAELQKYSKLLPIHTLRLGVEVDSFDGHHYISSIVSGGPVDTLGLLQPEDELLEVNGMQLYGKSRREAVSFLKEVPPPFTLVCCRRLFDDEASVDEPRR

Binder	pKd
IDESKKEWLI [CNTNAP2, Q9UHC6]	below the threshold

The binders below were run against LIMK2, P53671 (assay: holdup assay). Conditions: plain residues with an end cap or a label only (N-terminal biotin on a linker: ado-ado).
Parameters: key: below the threshold = too weak to quantify, mostly under pKd 3.1 to 4

Chain of LIMK2, P53671 (P53671 143-248): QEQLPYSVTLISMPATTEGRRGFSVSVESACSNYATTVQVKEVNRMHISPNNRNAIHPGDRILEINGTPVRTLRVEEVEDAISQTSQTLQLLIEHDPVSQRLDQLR

Binder	pKd
IDESKKEWLI [CNTNAP2, Q9UHC6]	below the threshold

Each binder was assayed against T7, LIN7C, Q9NUP9 (assay: holdup assay). Conditions: plain residues with an end cap or a label only (N-terminal biotin on a linker: ado-ado).
Parameters: key: below the threshold = too weak to quantify, mostly under pKd 3.1 to 4

Binder	pKd
IDESKKEWLI [CNTNAP2, Q9UHC6]	below the threshold

These binders were tested against LNX1_1, Q8TBB1 (assay: holdup assay). Conditions: plain residues with an end cap or a label only (N-terminal biotin on a linker: ado-ado).
Parameters: key: below the threshold = too weak to quantify, mostly under pKd 3.1 to 4

Chain of LNX1_1, Q8TBB1 (Q8TBB1 261-371): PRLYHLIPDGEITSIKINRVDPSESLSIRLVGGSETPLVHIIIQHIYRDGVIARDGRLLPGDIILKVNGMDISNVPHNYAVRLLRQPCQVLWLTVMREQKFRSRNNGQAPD

Binder	pKd
IDESKKEWLI [CNTNAP2, Q9UHC6]	below the threshold

What follows are binders tested against T8, LNX2_2, Q8N448 (assay: holdup assay). Conditions: plain residues with an end cap or a label only (N-terminal biotin on a linker: ado-ado).
Parameters: key: below the threshold = too weak to quantify, mostly under pKd 3.1 to 4

Binder	pKd
IDESKKEWLI [CNTNAP2, Q9UHC6]	4.77

The binders below were run against T9, LNX2_3, Q8N448 (assay: holdup assay). Conditions: plain residues with an end cap or a label only (N-terminal biotin on a linker: ado-ado).
Parameters: key: below the threshold = too weak to quantify, mostly under pKd 3.1 to 4

Binder	pKd
IDESKKEWLI [CNTNAP2, Q9UHC6]	below the threshold

The binders below were run against MAGI1_2, Q96QZ7 (assay: holdup assay). Conditions: plain residues with an end cap or a label only (N-terminal biotin on a linker: ado-ado).
Parameters: key: below the threshold = too weak to quantify, mostly under pKd 3.1 to 4

Chain of MAGI1_2, Q96QZ7 (Q96QZ7 456-580): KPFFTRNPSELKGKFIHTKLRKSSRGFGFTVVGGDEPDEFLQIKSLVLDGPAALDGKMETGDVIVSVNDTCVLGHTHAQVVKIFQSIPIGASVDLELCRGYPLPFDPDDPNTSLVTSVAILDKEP

Binder	pKd
IDESKKEWLI [CNTNAP2, Q9UHC6]	below the threshold

The binders below were run against MAGI2_3, Q86UL8 (assay: holdup assay). Conditions: plain residues with an end cap or a label only (N-terminal biotin on a linker: ado-ado).
Parameters: key: below the threshold = too weak to quantify, mostly under pKd 3.1 to 4

Chain of MAGI2_3, Q86UL8 (Q86UL8 600-682): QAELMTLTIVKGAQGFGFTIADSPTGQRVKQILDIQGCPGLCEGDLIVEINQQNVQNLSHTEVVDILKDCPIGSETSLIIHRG

Binder	pKd
IDESKKEWLI [CNTNAP2, Q9UHC6]	3.5

These binders were tested against T10, MPP2, Q14168 (assay: holdup assay). Conditions: plain residues with an end cap or a label only (N-terminal biotin on a linker: ado-ado).
Parameters: key: below the threshold = too weak to quantify, mostly under pKd 3.1 to 4

Binder	pKd
IDESKKEWLI [CNTNAP2, Q9UHC6]	4.78

The binders below were run against T11, NHERF3_1, Q5T2W1 (assay: holdup assay). Conditions: plain residues with an end cap or a label only (N-terminal biotin on a linker: ado-ado).
Parameters: key: below the threshold = too weak to quantify, mostly under pKd 3.1 to 4

Binder	pKd
IDESKKEWLI [CNTNAP2, Q9UHC6]	below the threshold

The binders below were run against NHERF4_1, Q86UT5-2 (assay: holdup assay). Conditions: plain residues with an end cap or a label only (N-terminal biotin on a linker: ado-ado).
Parameters: key: below the threshold = too weak to quantify, mostly under pKd 3.1 to 4

Chain of NHERF4_1, Q86UT5-2 (Q86UT5 other isoform, or with tags, fused parts or gaps): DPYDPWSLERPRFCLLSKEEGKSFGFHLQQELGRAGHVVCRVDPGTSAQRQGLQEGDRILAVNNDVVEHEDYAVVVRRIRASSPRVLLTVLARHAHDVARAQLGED

Binder	pKd
IDESKKEWLI [CNTNAP2, Q9UHC6]	below the threshold

The binders below were run against T12, PTPN13_1, Q12923 (assay: holdup assay). Conditions: plain residues with an end cap or a label only (N-terminal biotin on a linker: ado-ado).
Parameters: key: below the threshold = too weak to quantify, mostly under pKd 3.1 to 4

Binder	pKd
IDESKKEWLI [CNTNAP2, Q9UHC6]	below the threshold

Each binder was assayed against PTPN3, P26045 (assay: holdup assay). Conditions: plain residues with an end cap or a label only (N-terminal biotin on a linker: ado-ado).
Parameters: key: below the threshold = too weak to quantify, mostly under pKd 3.1 to 4

Chain of PTPN3, P26045 (P26045 505-587): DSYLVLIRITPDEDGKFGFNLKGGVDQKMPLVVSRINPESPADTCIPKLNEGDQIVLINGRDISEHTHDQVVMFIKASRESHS

Binder	pKd
IDESKKEWLI [CNTNAP2, Q9UHC6]	4.07

What follows are binders tested against SCRIB_2, Q14160 (assay: holdup assay). Conditions: plain residues with an end cap or a label only (N-terminal biotin on a linker: ado-ado).
Parameters: key: below the threshold = too weak to quantify, mostly under pKd 3.1 to 4

Chain of SCRIB_2, Q14160 (Q14160 857-960): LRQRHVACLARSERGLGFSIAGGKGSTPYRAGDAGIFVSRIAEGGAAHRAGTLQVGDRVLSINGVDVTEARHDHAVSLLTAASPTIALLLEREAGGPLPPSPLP

Binder	pKd
IDESKKEWLI [CNTNAP2, Q9UHC6]	below the threshold

The binders below were run against SCRIB_3, Q14160 (assay: holdup assay). Conditions: plain residues with an end cap or a label only (N-terminal biotin on a linker: ado-ado).
Parameters: key: below the threshold = too weak to quantify, mostly under pKd 3.1 to 4

Chain of SCRIB_3, Q14160 (Q14160 999-1103): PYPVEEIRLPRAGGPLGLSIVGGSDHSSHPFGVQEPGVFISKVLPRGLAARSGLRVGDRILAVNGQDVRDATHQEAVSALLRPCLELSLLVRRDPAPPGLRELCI

Binder	pKd
IDESKKEWLI [CNTNAP2, Q9UHC6]	3.71

The binders below were run against TJP2_1, Q9UDY2 (assay: holdup assay). Conditions: plain residues with an end cap or a label only (N-terminal biotin on a linker: ado-ado).
Parameters: key: below the threshold = too weak to quantify, mostly under pKd 3.1 to 4

Chain of TJP2_1, Q9UDY2 (Q9UDY2 24-128): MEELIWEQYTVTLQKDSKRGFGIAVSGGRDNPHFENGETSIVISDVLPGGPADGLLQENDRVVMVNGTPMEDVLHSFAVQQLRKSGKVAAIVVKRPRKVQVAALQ

Binder	pKd
IDESKKEWLI [CNTNAP2, Q9UHC6]	below the threshold
